Results on 19 sequences are retold here after the NTF2 design screens of Basanta et al. (2020).

This data set can be described thus: protease stability score; higher = more stable; yeast display proteolysis, trypsin and chymotrypsin.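 Further: relative to predicted unfolded state with 0 unfolded-like and 1 meaning tenfold more protease.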
As to “DEEDKKVKYFLNEWLHAVKTGDEEHLKRLADPRTYEQVGDKHYHGRETFRRFLHDLLEEMRFHRIHIKFSQMVNGVFYVNGELDGTFDGRRHRTDMRLEFEVVNGRIHELRIEIV”, the protease stability score stood at 1.18.

“DEEDKLSKEFSRTWEEIWRTGDEQEIKHLADPDTRDLVYIDGVNIDNHGREEMSRSMREWRDKFKNAREHVTHSRAQGDKVEMRIRIDFNGREIDMIVKIIVVDGRLKEFEIEIR” registered a protease stability score of 1.56.

For the sequence “DEEDKMAEFFMRLIFRAWLTGDEEELEKFMDPNTKHNLDIDGRNDHQIGRHEIVHHLKHFWRRYDHVQVKIRKYHIQGEKAHLHGHLILFIDGVEIRHNIEIRVVVINGRVHSVTMHIH”, the protease stability score stood at 1.79.

“DEEDKMVRVLVELWVENFITGDEEKLYELMDPDTRLEIDGVENHGMEKAIEFLERHREHYGVDHIHLIIHEVKHQGNKAHIDGILEFRQGDKQIELHWELHFEVVNGRMKEVHVNTR”: the protease stability score was found to be 2.29.

Sequence “DEEDKNTHEFARRIIESWVTGDWKDLHELIDPHARLILDVGNKKEIYHGREEVKRRLLREIEKFKNVRFEIRDLHVVGDKVDAEVTLHIDGKDIEIHIHLLIVNGKVKEIRLHYH” came in with a protease stability score of 2.27.

In turn, “DEEDKWDELLLEILIRIEKTGDEEKWLRFLDPHVRLDVDGQEVHGREEVVRVQKEWKERLGVKHIVIKRTKVVNGRIDMDKVMNVDGVNIKVHYHYHLVNGVLHEVEVRLE” gave a protease stability score of 0.992.

With “DEEDKWETHFLKVLEDSLKTGDETSLERMADPTARLSVGDKEHHGRDLLFFWIHKLLREAGVDKVESELHDEERQGEKVIVDIHLRVGDKVLRVIFYIYKYNGQWFIRSIEVE”, the protease stability score stood at 1.04.

Regarding “DEEDMDEVEKAIRKNDPEKMRDLADENAKASVGDNQFHGRDNVENFMKHLTDHADHVQVDSVEKHNGRVVVNAQLDINGEQIQIVIRIDVHNGKIKRFSIEVRDEEAHHFMREMVS”, the protease stability score came to 0.686.

“DEEDNMMREIWKQLVDNQRTGDEDRLQDLIDPHVRIIINIDGRELRSHGRHELVRWLREMGVDYLDIKSYRLQGDKIETDGTLSIGDKTKEVEVRYNIIDGRTKEVEFHLR” returned a protease stability score of 0.167.

The sequence “DEEDQDWERILEELLRSLLTGDEEFIRRLIDPNVRMHIKQGDKRINLHGRDAIEKLLELLHRRIKGVRIEIKRHDIQGDKIYVDGVINIDGKEFKIIIHIIVINGRLHTVSFETE” displayed a protease stability score of 1.9.

In the case of “DEEDQFTEKITRILHEIHRTGDFEKWEKLADPHVKVVIGEFEQHGRETASWVIEWLARYMGIKHIELRDHRVINGVVHLEHEVKVGDKRIDLELRHFVYDGRLKETEIRFR”, the protease stability score is 0.734.

For “DEEDRDAEFFMRLWMRLHKTGDEDQLRELLDPDVRVRFENREFHGREELIKFIHRHRREARTDVKIRDFRVQGDKVIVHGELILQFDGVRFNHDLILITRKIDGRWRIEEIEVR”, the protease stability score was 1.84.

On to “DEEDREAHEAIRILIDLLRTGDFDSLTRLADPHVRLDIGDKRLHGMKDFSRWILELRIHNFDLRHFDLVGDKIHVEGSLHTEFNGKHHEIHIQINITKVNGRWKIDEVTSL”, for which the protease stability score was found to be 1.63.

On to “DEEDREKDDLLRRFITAIYTGDERAIKEYLDPHVRTVFNGQEKHGREEVTTLVWQIMRELGIKVIRTHDEREQGNKVELHLELFVGNKRLEINVFAEKVDGKWILRQFIIKVD”, for which the protease stability score turned out to be 1.2.

“DEEDRELEEMLELIIHAFKTGDEEIMKRLFDPNTRIRINGREEIGWEHAVKILREWRFRHVILRRKHKQGDKLHYEFEVHGHFDGQQDSVHVRILILKVNGRWIITEYIFV” yielded a protease stability score of 2.51.

The sequence “DEEDRELERIYQELFEAWLTGNEDDLKKLADPNVRVDINGKDKVGREQEIEDLRRVKNMKVKLEDSDIIGDWITVDVVINFNGREIRMELEWRVINGKVKRVIVRYR” gave a protease stability score of 1.2.

For “DEEDRFAEEYIRLLHEIIKTGDWHQLKRMVDPNARWDVNGVDVIGMEEYVRVWKDEIDRFKGLRLHPRIRHVDFINGRIHVHSEKKVEYGDKEETFETKRHIFLFNGVDTHFSIRID”, the protease stability score is 0.278.

The sequence “DEEDRHAEEVFRTLIHAWHTGDEDTLKRMLDPDVKILIGDKDHHGRDFFAREMHEISKHLRVHFELHELDVINGRVHVHGTLVITINGREIRITVHIHVLIVDGRVKLQKWIKV” came in with a protease stability score of 0.583.

In turn, “DEEDRHLEEFIRLWLHFFFTGDWEFHMKNADPNVKLDAENRSVHGRDDASRTLVEIVRRLGIDHVELKDSHVIDGVIELHLELKIGDKRRTMHIHINIFNGRIRSVRIHFS” came in with a protease stability score of 1.28.
